Measurements: patent US20190119357A1, “MESSENGER RIBONUCLEIC ACIDS FOR THE PRODUCTION OF INTRACELLULAR BINDING POLYPEPTIDES AND METHODS OF USE THEREOF” (ModernaTX, Inc., priority 2015, published 2019)
Entries after “also recorded” stand apart in the source; their conditions may differ.

Legend:
MCL-1 = target: T1, MCL-1 (Homo sapiens, UniProt Q07820); assay: Co-immunoprecipitation in lysates of transfected HeLa cells; assay type: binding; settings: lysates of HeLa cells transfected with mRNAs
T1 construct: performed in lysates of HeLa cells transfected with mRNAs encoding SQT-BH3 constructs; endogenous in cells; host or cells: HeLa

[1] = tested on: human melanoma cells (A375); assay: Cell death after mRNA transfection; assay type: cell-based
[2] = tested on: human hepatocellular carcinoma (Hep G2) cells; assay: Cell death and morphology after mRNA transfection; assay type: cell-based
Text: A representative graph of the apoptotic ability of the SQT-BH3 constructs is shown in FIG. 2, showing the cell killing capacity of the SQT-BH3 constructs in Hep G2 cells.

HepG2 cells = assay: Cell death by YOYO3 with MC3 LNPs; assay type: cell-based
Hep3b xenografts = assay: Efficacy in SCID mice bearing subcutaneous Hep3B xenografts; assay type: in vivo; settings: SC Hep3B, 2mpk or 3mpk weekly (Day 1 and Day 8), mmRNA with miR-122 binding site in MC3 LNPs (1.5% DSPE)
Procedure: LNPs comprising the cationic lipid MC3 were tested using the optimal molar percentage of PEG-lipid and optimal PEG length (1.5% DSPE, C18, as described in Example 10), for in vivo targeted delivery of SQT-PUMA-BH3.
SCID mice were dosed weekly (Day 1 and Day 8) over a two week period with mmRNA encoding SQT-PUMA-BH3 (comprising a miR-122 binding site), as described above.

[3] = tested on: Orthotopic Hep3B xenografts; assay: Efficacy in SCID mice bearing orthotopic Hep3B xenografts; assay type: in vivo; settings: orthotopic Hep3B study, over the course of the study
Procedure: LNPs comprising the cationic lipid MC3 were tested using the optimal percentage of PEG-lipid and optimal PEG length (1.5% DSPE, C18, as described in Example 10), for in vivo targeted delivery of SQT-PUMA-BH3 in a model of Orthotopic Hep3B xenografts.
SCID mice were anesthetized, a transverse incision was made below the xiphoid and Hep3B cells (2×10^6) were injected into the upper left lobe of the liver, followed by surgical closure of the abdomen and skin. Tumor growth was measured by whole body bioluminescent imaging (BLI) in anaesthetized animals following SC injection of 150 mg/kg D-Luciferin, in an imaging chamber (Spectrum CT). Bioluminescence was measured as total flux (photons/second) of the entire animals. On Day 8 following tumor implantation when tumor BLI reached an average of 3.17×10^8 photons/sec (range 12.37×10^7−1.38×10^9 photons/sec), animals were randomized into study groups and treated weekly over a three week period (Days 9, 16 and 23) with PBS IV (Group 1), SQT 3 mg/kg IV (Group 2), mmRNA encoding SQT-PUMA-BH3 (comprising a miR122 binding site) weekly at 0.75 mg/kg (Group 3), 1.5 mg/kg (Group 4) or 3 mg/kg IV (Group 5; 12 animals per group). One week following the final dose, animals were euthanized and tumors excised and weighed.

systemic TF1a xenografts = assay: Systemic TF1a xenografts in SCID mice (AML model); assay type: in vivo
Procedure: (§1) LNPs comprising the cationic lipid MC3 were tested using the optimal percentage of PEG-lipid and optimal PEG length (1.5% DSPE, C18, as described in Example 8), for in vivo targeted delivery of SQT-PUMA-BH3 in two different in vivo models of acute myeloid leukemia (AML). One model used systemic TF1a xenografts in SCID mice. The other model used systemic HEL xenografts in SCID mice. Each of these models uses a human erythroleukemia cell line. The HEL erythroleukia cell line is described in, for example, Martin, P. and Papayannopoulou, T. (1982) Science 216:1233-1235. The TF1 erythroleukmia cell line (from which TF1a is derived) is described in, for example, Kitamura, T. et al. (1989) J. Cell. Physiol. 140:323-334. Unless otherwise noted, mRNAs were fully modified with N1-methlypseudouridine to avoid stimulating an innate immune response to said mRNAs when administered in vivo.
In a first set of experiments, TF1a cells stably expressing luciferase (TF1α-luc cells) were implanted systemically in SCID mice. Tumor growth was measured by whole body bioluminescent imaging (BLI) in anaesthetized animals following SC injection of 150 mg/kg D-Luciferin, in an imaging chamber (Spectrum CT). Animals showing an increasing tumor burden at day 12 post-cell implantation were recruited for treatment. Animals were randomized into four study groups, as follows: PBS IV (Group 1), cytarabine at 2 mg/kg three times per week (Group 2), LNPs containing mRNA encoding Green Fluorescent Protein (GFP) at 3 mg/kg one time per week (Group 3) and LNPs containing mRNA encoding SQT-PUMA-BH3 (comprising a miR122 binding site) at 3 mg/kg one time per week. Mice were dosed intravenously for four weeks.

systemic HEL xenografts = assay: Systemic HEL xenografts in SCID mice (AML model); assay type: in vivo
Procedure: as §1
In a second set of experiments, HEL cells stably expressing luciferase (HEL-luc cells) were implanted systemically in SCID mice. Tumor growth was measured by whole body bioluminescent imaging (BLI) in anaesthetized animals following SC injection of 150 mg/kg D-Luciferin, in an imaging chamber (Spectrum CT). […] Mice were dosed intravenously at days 28 and 36 and tumor burden was assessed by BLI on days 33, 36, 40 and 43.

Hep3B cells = assay: SQT-BH3 in combination with siMCL1 or sorafenib, YOYO-3; assay type: cell-based; settings: 10 uM sorafenib tosylate, 24 hours after treatment
primary hepatocytes = settings: 10uM sorafenib tosylate, 24 hours after treatment
Procedure: Controls were an empty SQT construct (“SQT-dummy”), a non-targeting siRNA and PBS. For treatment of Hep3B cells, 20,000 Hep3B cells/well per plated in 96-well plates. At Day 1, some wells were transfected with siMCL1 (Dharmacon, ON-TARGETplus Human MCL1 (4170) siRNA-SMARTpool, # L-004501-00-0005) or non-targeting siRNA (ON-TARGETplus Non-targeting Control Pool, # D-001810-10-05). […] 24 hours after treatment, YOYO®-3 iodide (Life Technologies) viability dye was added to each well and cell death was measured on an IncuCyte ZOOM® using YOYO-3 fluorescence as a readout (=“Apoptosis”). For treatment of primary hepatocytes, 18,000 mouse hepatocytes (Gibco) were seeded in each well of a 96-well plate. At Day 1, some wells were transfected with siMCL1 (Dharmacon, SMARTpool: ON-TARGETplus Mc11 siRNA, # L-062229-00-0005) or non-targeting siRNA (ON-TARGETplus Non-targeting Control Pool, # D-001810-10-05). […] 24 hours after treatment, Caspase 3/7 reagent (EssenBio) apoptosis dye was added to each well and cell death was measured on an IncuCyte ZOOM® using the caspase 3/7 reagent fluorescence as a readout (=“Apoptosis”).

[4] = TF1a-SCID mice, 3 mg/kg one time per week

T1 sequence (Q07820 whole entry): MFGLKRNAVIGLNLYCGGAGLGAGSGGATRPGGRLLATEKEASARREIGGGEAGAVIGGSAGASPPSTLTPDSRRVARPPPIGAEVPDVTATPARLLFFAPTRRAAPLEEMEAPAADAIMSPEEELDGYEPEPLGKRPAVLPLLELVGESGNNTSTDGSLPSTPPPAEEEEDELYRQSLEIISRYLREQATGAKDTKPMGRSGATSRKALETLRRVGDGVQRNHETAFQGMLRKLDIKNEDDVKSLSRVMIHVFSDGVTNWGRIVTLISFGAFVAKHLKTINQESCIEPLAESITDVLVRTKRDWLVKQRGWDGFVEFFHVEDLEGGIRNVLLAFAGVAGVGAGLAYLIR

B1: SQT-PUMA-BH3: mRNA (SEQ ID NO: 49, FLAG) encoding SQT scaffold with PUMA BH3 domain in N-terminus, fully modified with 1-methyl-pseudouridine (nucleic acid)
chain: ATGATCCCAAGAGAAGAACAGTGGGCACGCGAAATTGGAGCTCAACTCAGACGGATGGCCGACGACCTGAACGCCCAGTACGAGCGGCGGGGACTCTCAGAAGCGAAGCCTGCCACCCCCGAAATCCAGGAAATCGTCGACAAGGTCAAGCCGCAGCTTGAGGAAAAGACCAACGAGACTTACGGAAAACTGGAGGCCGTGCAGTATAAGACCCAAGTGTTGGCCTCCACCAACTACTACATTAAGGTCCGCGCCGGCGATAACAAGTACATGCACCTGAAGGTGTTCAATGGTCCTCCGGGACAGAACGCGGACAGGGTGCTGACTGGCTACCAAGTGGACAAGAACAAGGACGACGAGCTGACGGGCTTCGACTACAAGGATGATGATGACAAA
modifications: FLAG tag, 1-methyl-pseudouridine; Synthetic SQT-PUMA-BH3 mRNA sequence with FLAG epitope tag
co-immunoprecipitation of MCL-1 (MCL-1): able to co-immunoprecipitate | cell death [1]: caused rapid cell death almost immediately following transfection | cell death [2]: caused rapid cell death almost immediately following transfection; also recorded: underwent cell death almost immediately following transfection | cell morphology [2]: rounded-up cell morphology that is characteristic of apoptotic cells | cell death (YOYO3 staining) (HepG2 cells): lead to cell death; also recorded: kills HepG2 cells | tumor growth inhibition (TGI) (Hep3b xenografts): significantly greater TGI than the mice treated with PBS alone | percent body weight change / tolerability [3]: did not significantly impact body weight | body weight (systemic TF1a xenografts; [4]): did not cause significant body weight changes | tolerability / treatment-related mortality (systemic TF1a xenografts; [4]): well tolerated, resulting in no treatment-related mortality | systemic tumor growth (BLI) (systemic TF1a xenografts; TF1a-SCID, mRNA LNPs 3 mg/kg one time per week, cytarabine 2 mg/kg three times per week, IV, four weeks): led to greater tumor growth inhibition than treatment with cytarabine | tumor growth inhibition (TGI), BLI (systemic HEL xenografts; 1.5 mg/kg IV at days 28 and 36, by days 40 and 43): exhibited greater tumor growth inhibition (TGI) as compared to the mice treated with the PBS or GFP controls | tumor growth inhibition (TGI), BLI (systemic HEL xenografts; 3 mg/kg IV at days 28 and 36, at day 33): already exhibited significantly greater tumor growth inhibition than the mice treated with the PBS or GFP controls | apoptosis (YOYO-3) in combination with either siMCL1 or sorafenib (Hep3B cells): led to a marked increase in apoptosis as compared to treatment with the SQT-BH3 construct in combination with non-targeting siRNA or PBS; also recorded: synergistic pro-apoptotic effect | apoptosis (caspase 3/7) in combination with siMCL1, sorafenib or controls (primary hepatocytes): did not lead to increased apoptosis as compared to treatment with the control SQT-dummy construct
